The labels stand for the following.
B1: H6L18 (antibody, human IgG1, kappa, V domains shown)
VH: QVQLVQSGAEVKKPGASVKVSCKASGYTFTSYWMHWVRQAPGQGLEWIGNINPSNGGTNYNEKFKSRATMTRDTSTSTAYMELSSLRSEDTAVYYCELGQGYWGQGTLVTVSS
VL: DIVMTQDPLSNPVTLGQPVSISCRSSKSLLYKDGKTYLNWFLQRPGQSPQLLIYLMSTRASGVSDRFSGSGSGTDFTLKISRVEAEDVGVYYCQQLVEYPLTFGQGTKLEIKR
notes: Tested as CHO-K1 supernatant
B2: H17L13 (antibody, human IgG1, kappa)
heavy: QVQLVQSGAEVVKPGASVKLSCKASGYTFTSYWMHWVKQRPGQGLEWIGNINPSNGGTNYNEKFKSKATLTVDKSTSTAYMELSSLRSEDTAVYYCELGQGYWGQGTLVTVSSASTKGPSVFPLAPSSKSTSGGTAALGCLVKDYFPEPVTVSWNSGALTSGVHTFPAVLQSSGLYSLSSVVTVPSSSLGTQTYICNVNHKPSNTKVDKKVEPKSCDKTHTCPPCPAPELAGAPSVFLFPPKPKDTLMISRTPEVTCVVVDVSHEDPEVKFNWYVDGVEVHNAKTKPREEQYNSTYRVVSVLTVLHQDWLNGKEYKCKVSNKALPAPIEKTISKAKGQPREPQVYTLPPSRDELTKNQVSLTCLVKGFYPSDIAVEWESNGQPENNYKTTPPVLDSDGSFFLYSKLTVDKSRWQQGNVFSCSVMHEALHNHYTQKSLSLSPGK
light: DIVMTQSPLSLPVTLGQPASISCRSSKSLLYKDGKTYLNWFQQRPGQSPQLLIYLMSTRASGVPDRFSGGGSGTDFTLKISRVEAEDVGVYYCQQLVEYPLTFGQGTKLEIKRTVAAPSVFIFPPSDEQLKSGTASVVCLLNNFYPREAKVQWKVDNALQSGNSQESVTEQDSKDSTYSLSSTLTLSKADYEKHKVYACEVTHQGLSSPVTKSFNRGEC
notes: Tested as CHO-K1 supernatant
B3: H18L18 (antibody, human IgG1, kappa, V domains shown)
VH: B1 VH with K12V, V20L, R38K, A40R, R67K, M70L, R72V, T74K, T76S, T91S
VL: B1 VL
notes: Tested as CHO-K1 supernatant
B4: H16L13 (antibody, human IgG1, kappa)
heavy: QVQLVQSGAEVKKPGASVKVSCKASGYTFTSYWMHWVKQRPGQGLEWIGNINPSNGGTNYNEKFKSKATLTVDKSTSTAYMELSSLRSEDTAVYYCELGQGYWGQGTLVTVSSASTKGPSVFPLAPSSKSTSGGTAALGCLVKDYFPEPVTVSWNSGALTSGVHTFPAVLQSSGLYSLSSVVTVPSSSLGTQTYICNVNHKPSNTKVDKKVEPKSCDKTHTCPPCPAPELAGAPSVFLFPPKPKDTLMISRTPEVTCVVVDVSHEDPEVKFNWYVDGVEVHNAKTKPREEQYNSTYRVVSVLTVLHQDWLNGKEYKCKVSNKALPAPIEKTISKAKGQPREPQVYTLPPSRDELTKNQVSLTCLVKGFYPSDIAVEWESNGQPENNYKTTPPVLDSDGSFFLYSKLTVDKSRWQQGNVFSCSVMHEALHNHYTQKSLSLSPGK
light: B2 light
notes: Tested as CHO-K1 supernatant
B5: H14L16 (antibody, human IgG1, kappa, V domains shown)
VH: B1 VH with K12V, V20L, R38K, M70L
VL: B1 VL with D7S, S64P, S70G
B6: H15L13 (antibody, human IgG1, kappa, V domains shown)
VH: B1 VH with K12V, V20L, R38K, A40R, R67K, M70L, R72V, T76S, T91S
VL: B1 VL with D7S, N11L, V19A, L42Q, S64P, S70G
notes: Tested as CHO-K1 supernatant
B7: H15L18 (antibody, human IgG1, kappa, V domains shown)
VH: B1 VH with K12V, V20L, R38K, A40R, R67K, M70L, R72V, T76S, T91S
VL: B1 VL
notes: Tested as CHO-K1 supernatant
B8: H16L18 (antibody, human IgG1, kappa)
heavy: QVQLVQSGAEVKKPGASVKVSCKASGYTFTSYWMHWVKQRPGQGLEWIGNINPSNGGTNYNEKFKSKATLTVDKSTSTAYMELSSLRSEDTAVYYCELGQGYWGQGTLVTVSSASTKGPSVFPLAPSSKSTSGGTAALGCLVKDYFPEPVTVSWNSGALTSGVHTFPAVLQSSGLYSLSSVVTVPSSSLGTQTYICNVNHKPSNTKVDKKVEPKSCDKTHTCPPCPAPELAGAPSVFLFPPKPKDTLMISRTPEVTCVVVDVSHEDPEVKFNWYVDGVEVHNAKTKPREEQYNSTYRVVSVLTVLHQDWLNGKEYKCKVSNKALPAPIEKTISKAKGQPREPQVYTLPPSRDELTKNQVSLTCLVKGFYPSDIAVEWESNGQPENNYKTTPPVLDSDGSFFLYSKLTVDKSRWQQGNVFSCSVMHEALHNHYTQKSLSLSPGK
light: B2 light with S7D, L11N, A19V, Q42L, P64S, G70S
notes: Humanised 2A10; Human gamma1 mutated constant region and human kappa; also called H16L18 FL
B9: H16L16 (antibody, human IgG1, kappa)
heavy: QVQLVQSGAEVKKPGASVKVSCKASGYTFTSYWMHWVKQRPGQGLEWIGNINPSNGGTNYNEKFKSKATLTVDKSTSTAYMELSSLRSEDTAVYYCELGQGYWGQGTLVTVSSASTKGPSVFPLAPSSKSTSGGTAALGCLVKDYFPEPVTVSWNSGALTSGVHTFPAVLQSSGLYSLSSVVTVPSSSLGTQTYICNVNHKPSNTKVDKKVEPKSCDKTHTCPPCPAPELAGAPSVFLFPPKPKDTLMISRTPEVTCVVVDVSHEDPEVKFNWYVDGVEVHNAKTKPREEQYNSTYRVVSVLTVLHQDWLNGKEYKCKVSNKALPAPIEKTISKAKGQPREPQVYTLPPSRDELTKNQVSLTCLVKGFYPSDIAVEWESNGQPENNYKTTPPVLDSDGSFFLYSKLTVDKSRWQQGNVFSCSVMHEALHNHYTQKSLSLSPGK
light: B2 light with L11N, A19V, Q42L
notes: Humanised 2A10; Human gamma1 mutated constant region and human kappa; also called H16L16 FL
B10: H6L13 (antibody, human IgG1, kappa, V domains shown)
VH: B1 VH
VL: B1 VL with D7S, N11L, V19A, L42Q, S64P, S70G
notes: Humanised 2A10; Human gamma1 mutated constant region and human kappa; also called H6L13 FL
B11: H1L11 (antibody, human IgG1, kappa, V domains shown)
VH: B1 VH with I48M, A68V, A79V
VL: B1 VL with M4I, D7S, N11L, V19A, L42Q, S64P, S70G
notes: Earlier humanised 2A10
B12: H16L17 (antibody, V domains shown)
VH: B1 VH with R38K, A40R, R67K, M70L, R72V, T74K
VL: B1 VL with N11L, V19A, L42Q
notes: copies: 2 + 2
B13: H17L18 (antibody)
heavy: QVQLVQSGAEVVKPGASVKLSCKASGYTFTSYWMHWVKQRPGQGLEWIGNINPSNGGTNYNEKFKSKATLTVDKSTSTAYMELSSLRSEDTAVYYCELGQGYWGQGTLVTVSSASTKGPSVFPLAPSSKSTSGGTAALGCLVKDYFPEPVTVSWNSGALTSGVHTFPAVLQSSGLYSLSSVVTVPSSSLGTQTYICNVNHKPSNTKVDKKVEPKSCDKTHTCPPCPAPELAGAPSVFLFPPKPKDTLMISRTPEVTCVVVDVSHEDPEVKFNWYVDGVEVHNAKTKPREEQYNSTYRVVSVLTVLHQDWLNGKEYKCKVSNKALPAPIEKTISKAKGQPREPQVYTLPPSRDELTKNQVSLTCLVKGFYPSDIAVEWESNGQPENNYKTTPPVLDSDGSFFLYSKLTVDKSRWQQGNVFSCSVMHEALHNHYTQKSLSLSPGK
light: B2 light with S7D, L11N, A19V, Q42L, P64S, G70S
notes: copies: 2 + 2

Where a chain is given by its changes, count along the chain named.

The target of one experiment is T1, GST-human NOGO-A56 (human, UniProt P08515 1-218 = GST).
T1 construct: GST-tagged fusion expressed in E. coli BL21 and purified on glutathione-sepharose; coated on ELISA plates or amine-coupled to a CM5 chip; also called hNOGO; recombinant human NOGO
T1 sequence (P08515 1-218, tags or fused parts left off): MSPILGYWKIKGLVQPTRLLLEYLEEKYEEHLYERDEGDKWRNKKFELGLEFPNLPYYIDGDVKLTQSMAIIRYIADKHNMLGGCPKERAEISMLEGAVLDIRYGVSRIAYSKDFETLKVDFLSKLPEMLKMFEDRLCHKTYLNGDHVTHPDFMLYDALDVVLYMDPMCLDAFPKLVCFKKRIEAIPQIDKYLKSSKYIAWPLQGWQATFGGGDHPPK
The experiment is described as follows: SPR (Biacore) off-rate ranking, CHO-K1 transient supernatant over GST-human NOGO-A56 chip; single experiment. Here is the method:
(§1) hNOGO (GST-human NOGO-A56) was immobilised to a CM5 chip by primary amine coupling using the Biacore Wizard program designed for targeted immobilisation levels. The CM5 sensor surface was activated by passing a solution of 50 mM N-hydroxy-succinimide (NHS) and 200 mM N-ethyl-N′-dimethylaminopropyl […] (EDC). Then hNOGO in sodium acetate buffer, pH5.0 or pH 4.5, was passed over the chip and immobilised. After immobilisation was complete any still activated esters were blocked by an injection of 1M ethanolamine hydrochloride, pH8.5.
(§2) The hNOGO chip was prepared as for kinetic analysis. Cell supernatants where taken directly from transient transfections of CHO-K1 cells. These were passed directly over the sensor surface and the interaction measured. A mock transfected cell supernatant was used for double referencing to remove any artefacts due to the tissue culture media. All runs were referenced against a blanked sensor surface (one that had been activated and blocked as described earlier but had no addition of ligand). Analysis of binding was carried out using the BIAevaluation kinetic analysis software version 4.1.
(Surface plasmon resonance follows binding to a sensor surface in real time, without labels.)
As usually defined, the koff is a measure of how fast the partners let go of each other. A lower koff goes with a long-lived complex. In the case of B1, the koff came to 0.0106 s⁻¹.

For the molecule B2, the koff is 0.00931 s⁻¹.

In turn, B3 displayed a koff of 0.0058 s⁻¹.

For the molecule B4, the koff came to 0.00907 s⁻¹.

With B5, the koff was 0.0089 s⁻¹.

Regarding B6, the koff is 0.00965 s⁻¹.

Regarding B7, the koff worked out at 0.00594 s⁻¹.

In the next experiment the target is T1, GST-human NOGO-A56. The experiment is described as follows: ELISA, coated GST-human NOGO-A56, transfection supernatant, anti-human kappa-HRP, OD 490 nm. The protocol:
(§3) GST-human NOGO-A56 (SEQ ID: 76) at 1 μg/ml in PBS was coated onto Nunc Immunosorp plates (100 μl per well) at 4° C. overnight. Wells were rinsed once with TBS+0.05% Tween (TBST) then incubated with 2% BSA in TBST to block non-specific binding sites at room temperature for 1 hour. Antibodies were diluted in TBST+2% BSA to 10 μg/ml and 1/2 dilutions made from this. Antibodies were added to wells in duplicate and incubated at room temperature for 1 hour. Wells were washed three times with TBST then incubated with anti-human kappa peroxidase conjugate (1:2000) for 1 hour. The wells were washed three times with TBST and then incubated with 100 μl OPD peroxidase substrate (Sigma) per well for 10 minutes. The colour reaction was stopped by the addition of 25 μl concentrated H₂SO₄. Optical density at 490 nm was measured using a plate reader. Background values read from wells with no antibody were subtracted.
The term EC50 (read off the curve) denotes the concentration that produces a half-maximal response. Low readings indicate higher potency in that assay, high ones lower potency in that assay. As to B1, the “EC50 (read off the curve)” value was roughly 0.5 µg/mL.

For the molecule B8, the “EC50 (read off the curve)” value was roughly 0.4 µg/mL.

The target of a further experiment is T1, GST-human NOGO-A56. The description is as above. The source holds these as a separate data set. The protocol: as §3
On to B6, for which the 50% effective concentration (EC50 (read off the curve)) is roughly 0.05 µg/mL.

B8: the “EC50 (read off the curve)” value is roughly 0.06 µg/mL.

For B9, the “EC50 (read off the curve)” value is roughly 0.06 µg/mL.

The target of the next experiment is T1, GST-human NOGO-A56. The experiment can be described thus: SPR (Biacore 3000), GST-human NOGO-A56 on CM5, antibody as analyte; single experiment. Here is the method:
as §1
(§4) The anti-NOGO mAbs were diluted down in HBS-EP (10 mM HEPES, pH 7.4, 150 mM NaCl, 3 mM EDTA, and 0.005% P-20 surfactant) and binding studies were carried out at range of defined antibody concentrations. All runs were referenced against a blanked sensor surface (one that had been activated and blocked as described earlier but had no addition of ligand). Analysis of binding was carried out using the BIAevaluation kinetic analysis software version 4.1. Biacore analysis of other antibodies of the invention essentially followed the same protocol as described herein.
One may read the Kd as the free concentration of one partner at which half of the binding sites on the other are occupied at equilibrium, for simple one-to-one binding. As usually defined, the kon is the rate constant with which the complex forms. With B10, binding was put at a Kd of 7.9 nM, the koff is 0.0233 s⁻¹ and the kon worked out at 2.95e+06 M⁻¹ s⁻¹.

The target in another experiment is T1, GST-human NOGO-A56. The experiment can be described thus: SPR (Biacore) off-rate ranking, CHO-K1 transient supernatant over GST-human NOGO-A56 chip; mean (SD) of three runs. The protocol:
as §1, §2
Turning to B11, the off-rate constant (koff) came out at 0.0403 s⁻¹.

In turn, B8 gave an off-rate (koff) of 0.00609 s⁻¹.

In turn, B10 returned a koff of 0.0173 s⁻¹.

Molecule B9 showed a dissociation rate constant (koff) of 0.00664 s⁻¹.

The next experiment has as its target T1, GST-human NOGO-A56. The experiment can be described thus: ELISA, coated GST-human NOGO-A56, transfection supernatant, anti-human kappa-HRP, OD 490 nm. This is another data set of the same source. The protocol: as §3
With B1, the half-maximal effective concentration (EC50 (read off the curve)) was roughly 0.4 µg/mL.

The target of the next experiment is T1, GST-human NOGO-A56. The experiment is described as above. This is another data set of the same source. Here is the method: as §3
For the molecule B5, the “EC50 (read off the curve)” value was roughly 0.09 µg/mL.

In the case of B9, the “EC50 (read off the curve)” value was roughly 0.04 µg/mL.

In the next experiment the target is T1, GST-human NOGO-A56. The experiment is described as follows: SPR (Biacore 3000), GST-human NOGO-A56 on CM5, antibody as analyte; single experiment. This is another data set of the same source. The protocol:
(§5) The binding kinetics of the anti-NOGO monoclonal antibody (mAb) to recombinantly expressed human NOGO-A (GST-human NOGO-A56) was analysed using the Biacore3000 biosensor. The hNOGO-A chip was prepared as follows:
as §1, §4
In the case of B5, the Kd is 3.6 nM, the off-rate constant (koff) turned out to be 0.00739 s⁻¹ and the kon came to 2.05e+06 M⁻¹ s⁻¹.

B11 gave a Kd of 21.3 nM, a koff of 0.0284 s⁻¹ and a kon of 1.33e+06 M⁻¹ s⁻¹.

As for B10, the Kd stood at 7.3 nM, the off-rate (koff) amounted to 0.013 s⁻¹ and the kon is 1.77e+06 M⁻¹ s⁻¹.

With B9, the Kd came to 1 nM, the koff came out at 0.00569 s⁻¹ and the kon was 5.47e+06 M⁻¹ s⁻¹.

In a further experiment the target is T1, GST-human NOGO-A56. The experiment can be described thus: ELISA, coated GST-human NOGO-A56, transfection supernatant, anti-human kappa-HRP, OD 490 nm. This is another data set of the same source. The protocol: as §3
For orientation: An ELISA detects its analyte on a solid surface through an enzyme-linked reagent.
B2: the half-maximal effective concentration (EC50 (read off the curve)) was roughly 0.06 µg/mL.

In the case of B4, the “EC50 (read off the curve)” value is roughly 0.08 µg/mL.

With B8, the “EC50 (read off the curve)” value was roughly 0.04 µg/mL.

As for B9, the “EC50 (read off the curve)” value was roughly 0.06 µg/mL.

The next experiment has as its target T1, GST-human NOGO-A56. Described as above. This is another data set of the same source. The protocol: as §3
On to B3, for which the 50% effective concentration (EC50 (read off the curve)) was roughly 0.1 µg/mL.

For B10, the concentration for a half-maximal effect (EC50 (read off the curve)) is roughly 0.2 µg/mL.

Take B12: the concentration for a half-maximal effect (EC50 (read off the curve)) is roughly 0.1 µg/mL.

As for B13, the “EC50 (read off the curve)” value was roughly 0.1 µg/mL.

The target of another experiment is T1, GST-human NOGO-A56. The experiment can be described thus: SPR (Biacore 3000), GST-human NOGO-A56 amine-coupled to CM5, antibody as analyte; mean (SD) of four experiments. The protocol: as §5, §1, §4
In turn, B11 came in with an equilibrium dissociation constant (Kd) of 18.6 nM, a koff of 0.0314 s⁻¹ and a kon of 1.73e+06 M⁻¹ s⁻¹.

In the case of B8, binding was put at a Kd of 1.33 nM, the koff worked out at 0.00552 s⁻¹ and the kon stood at 4.18e+06 M⁻¹ s⁻¹.

For the molecule B10, the affinity, expressed as Kd, was 7.68 nM; the off-rate constant (koff) is 0.0137 s⁻¹; the kon worked out at 1.82e+06 M⁻¹ s⁻¹.

On to B9, for which binding was characterised by a dissociation constant (Kd) of 1.26 nM, the off-rate constant (koff) was found to be 0.00554 s⁻¹ and the on-rate (kon) was determined as 4.37e+06 M⁻¹ s⁻¹.

In a further experiment the target is T1, GST-human NOGO-A56. The experiment is described as follows: ELISA, coated GST-human NOGO-A56, transfection supernatant, anti-human kappa-HRP, OD 490 nm. This is another data set of the same source. The protocol:
as §3
With B5, the “EC50 (read off the curve)” value was roughly 0.08 µg/mL.

For B8, the concentration giving a half-maximal response (EC50 (read off the curve)) is roughly 0.03 µg/mL.

In the case of B7, the concentration for a half-maximal effect (EC50 (read off the curve)) is roughly 0.04 µg/mL.

The values are drawn from patent US20060029603A1 (GlaxoSmithKline, published 2006).
